Laboratory results: US20160272683A1 (Novo Nordisk, published 2016)
Values belong to the binder of their own block, whether it stands above or below them. Numbered stars: 1 amine (or outer) side, 2 acyl side, 3 side chain; on linkers, the order of the positions; unused ones are H or OH. * marks the point of attachment. C20 diacid = O=C(O)CCCCCCCCCCCCCCCCCCC(=O)*; C18 diacid = O=C(O)CCCCCCCCCCCCCCCCC(=O)*; C16 diacid = O=C(O)CCCCCCCCCCCCCCC(=O)*; γGlu = O=C(O)[C@H](CCC(=O)[*:2])N[*:1]

Key:
[1] = molecular target: T1, human amylin 3(a) receptor (human calcitonin receptor co-expressed with RAMP-3) (human, UniProt P30988 25-474; O60896 24-148, limits assumed); experiment: cell-based or functional assay
T1 sequence (looked up) 1: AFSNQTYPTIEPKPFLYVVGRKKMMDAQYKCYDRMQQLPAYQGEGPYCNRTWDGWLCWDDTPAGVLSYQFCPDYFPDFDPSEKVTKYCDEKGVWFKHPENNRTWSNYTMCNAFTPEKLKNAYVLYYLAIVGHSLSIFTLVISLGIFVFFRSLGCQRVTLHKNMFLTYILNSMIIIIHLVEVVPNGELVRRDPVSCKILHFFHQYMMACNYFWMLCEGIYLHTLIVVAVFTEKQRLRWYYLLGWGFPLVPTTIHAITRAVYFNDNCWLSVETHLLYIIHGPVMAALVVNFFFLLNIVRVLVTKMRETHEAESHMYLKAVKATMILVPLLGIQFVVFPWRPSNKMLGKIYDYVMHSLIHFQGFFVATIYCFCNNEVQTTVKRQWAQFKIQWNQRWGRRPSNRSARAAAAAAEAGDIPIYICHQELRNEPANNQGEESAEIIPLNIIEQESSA
T1 sequence (looked up) 2: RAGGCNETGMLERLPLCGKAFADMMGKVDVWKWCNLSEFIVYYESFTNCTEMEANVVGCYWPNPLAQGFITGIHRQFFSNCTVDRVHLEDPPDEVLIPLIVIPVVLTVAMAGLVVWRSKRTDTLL

[2] = molecular target: T2, human calcitonin receptor (human, UniProt P30988 25-474); experiment: cell-based or functional assay
T2 sequence (looked up): T1 sequence (looked up) 1

hAmylin-R funct. EC50 (pM) [1]: 12 pM
hCTR funct. EC50 (pM) [2]: 14 pM
B1: [N-terminal(C20 diacid-gGlu), 23Y, 30S, 31G]mimylin (peptide)
peptide: {C20 diacid-γGlu}-EASELSTAALGRLSAELHELATYPRTETGSGSP-NH2
SMILES: CC(C)C[C@H](NC(=O)[C@H](C)NC(=O)[C@H](C)NC(=O)[C@@H](NC(=O)[C@H](CO)NC(=O)[C@H](CC(C)C)NC(=O)[C@H](CCC(=O)O)NC(=O)[C@H](CO)NC(=O)[C@H](C)NC(=O)[C@H](CCC(=O)O)NC(=O)CC[C@H](NC(=O)CCCCCCCCCCCCCCCCCCC(=O)O)C(=O)O)[C@@H](C)O)C(=O)NCC(=O)N[C@@H](CCCNC(=N)N)C(=O)N[C@@H](CC(C)C)C(=O)N[C@@H](CO)C(=O)N[C@@H](C)C(=O)N[C@@H](CCC(=O)O)C(=O)N[C@@H](CC(C)C)C(=O)N[C@@H](Cc1c[nH]cn1)C(=O)N[C@@H](CCC(=O)O)C(=O)N[C@@H](CC(C)C)C(=O)N[C@@H](C)C(=O)N[C@H](C(=O)N[C@@H](Cc1ccc(O)cc1)C(=O)N1CCC[C@H]1C(=O)N[C@@H](CCCNC(=N)N)C(=O)N[C@H](C(=O)N[C@@H](CCC(=O)O)C(=O)N[C@H](C(=O)NCC(=O)N[C@@H](CO)C(=O)NCC(=O)N[C@@H](CO)C(=O)N1CCC[C@H]1C(N)=O)[C@@H](C)O)[C@@H](C)O)[C@@H](C)O

hAmylin-R funct. EC50 (pM) [1]: 14 pM
hCTR funct. EC50 (pM) [2]: 7 pM
B2: [N-terminal(C18 diacid), 4P, 9V]mimylin (peptide)
peptide: {C18 diacid}-EASPLSTAVLGRLSAELHELATLPRTETGPESP-NH2
SMILES: CC(C)C[C@H](NC(=O)[C@H](CCC(=O)O)NC(=O)[C@H](Cc1c[nH]cn1)NC(=O)[C@H](CC(C)C)NC(=O)[C@H](CCC(=O)O)NC(=O)[C@H](C)NC(=O)[C@H](CO)NC(=O)[C@H](CC(C)C)NC(=O)[C@H](CCCNC(=N)N)NC(=O)CNC(=O)[C@H](CC(C)C)NC(=O)[C@@H](NC(=O)[C@H](C)NC(=O)[C@@H](NC(=O)[C@H](CO)NC(=O)[C@H](CC(C)C)NC(=O)[C@@H]1CCCN1C(=O)[C@H](CO)NC(=O)[C@H](C)NC(=O)[C@H](CCC(=O)O)NC(=O)CCCCCCCCCCCCCCCCC(=O)O)[C@@H](C)O)C(C)C)C(=O)N[C@@H](C)C(=O)N[C@H](C(=O)N[C@@H](CC(C)C)C(=O)N1CCC[C@H]1C(=O)N[C@@H](CCCNC(=N)N)C(=O)N[C@H](C(=O)N[C@@H](CCC(=O)O)C(=O)N[C@H](C(=O)NCC(=O)N1CCC[C@H]1C(=O)N[C@@H](CCC(=O)O)C(=O)N[C@@H](CO)C(=O)N1CCC[C@H]1C(N)=O)[C@@H](C)O)[C@@H](C)O)[C@@H](C)O

hAmylin-R funct. EC50 (pM) [1]: 8 pM
hCTR funct. EC50 (pM) [2]: 4 pM
Binder: {C16 diacid}-EASELSTAALGRLSAELHELATLPRTETGPESP-NH2 [[N-terminal(C16 diacid)]mimylin]

hAmylin-R funct. EC50 (pM) [1]: 13 pM
hCTR funct. EC50 (pM) [2]: 8 pM
B3: [N-terminal(C18 diacid-gGlu), des1, 30S, 31P]mimylin (peptide)
peptide: {C18 diacid-γGlu}-ASELSTAALGRLSAELHELATLPRTETGSPSP-NH2
SMILES: CC(C)C[C@H](NC(=O)[C@H](C)NC(=O)[C@H](C)NC(=O)[C@@H](NC(=O)[C@H](CO)NC(=O)[C@H](CC(C)C)NC(=O)[C@H](CCC(=O)O)NC(=O)[C@H](CO)NC(=O)[C@H](C)NC(=O)CC[C@H](NC(=O)CCCCCCCCCCCCCCCCC(=O)O)C(=O)O)[C@@H](C)O)C(=O)NCC(=O)N[C@@H](CCCNC(=N)N)C(=O)N[C@@H](CC(C)C)C(=O)N[C@@H](CO)C(=O)N[C@@H](C)C(=O)N[C@@H](CCC(=O)O)C(=O)N[C@@H](CC(C)C)C(=O)N[C@@H](Cc1c[nH]cn1)C(=O)N[C@@H](CCC(=O)O)C(=O)N[C@@H](CC(C)C)C(=O)N[C@@H](C)C(=O)N[C@H](C(=O)N[C@@H](CC(C)C)C(=O)N1CCC[C@H]1C(=O)N[C@@H](CCCNC(=N)N)C(=O)N[C@H](C(=O)N[C@@H](CCC(=O)O)C(=O)N[C@H](C(=O)NCC(=O)N[C@@H](CO)C(=O)N1CCC[C@H]1C(=O)N[C@@H](CO)C(=O)N1CCC[C@H]1C(N)=O)[C@@H](C)O)[C@@H](C)O)[C@@H](C)O

hAmylin-R funct. EC50 (pM) [1]: 23 pM
hCTR funct. EC50 (pM) [2]: 54 pM
B4: [N-terminal(C18 diacid), 5V, 9V, 20V]mimylin (peptide)
peptide: {C18 diacid}-EASEVSTAVLGRLSAELHEVATLPRTETGPESP-NH2
SMILES: CC(C)C[C@H](NC(=O)[C@H](CCCNC(=N)N)NC(=O)CNC(=O)[C@H](CC(C)C)NC(=O)[C@@H](NC(=O)[C@H](C)NC(=O)[C@@H](NC(=O)[C@H](CO)NC(=O)[C@@H](NC(=O)[C@H](CCC(=O)O)NC(=O)[C@H](CO)NC(=O)[C@H](C)NC(=O)[C@H](CCC(=O)O)NC(=O)CCCCCCCCCCCCCCCCC(=O)O)C(C)C)[C@@H](C)O)C(C)C)C(=O)N[C@@H](CO)C(=O)N[C@@H](C)C(=O)N[C@@H](CCC(=O)O)C(=O)N[C@@H](CC(C)C)C(=O)N[C@@H](Cc1c[nH]cn1)C(=O)N[C@@H](CCC(=O)O)C(=O)N[C@H](C(=O)N[C@@H](C)C(=O)N[C@H](C(=O)N[C@@H](CC(C)C)C(=O)N1CCC[C@H]1C(=O)N[C@@H](CCCNC(=N)N)C(=O)N[C@H](C(=O)N[C@@H](CCC(=O)O)C(=O)N[C@H](C(=O)NCC(=O)N1CCC[C@H]1C(=O)N[C@@H](CCC(=O)O)C(=O)N[C@@H](CO)C(=O)N1CCC[C@H]1C(N)=O)[C@@H](C)O)[C@@H](C)O)[C@@H](C)O)C(C)C

hAmylin-R funct. EC50 (pM) [1]: 8 pM
hCTR funct. EC50 (pM) [2]: 7 pM
B5: [N-terminal(C18 diacid), 9V, 18A]mimylin (peptide)
peptide: {C18 diacid}-EASELSTAVLGRLSAELAELATLPRTETGPESP-NH2
SMILES: CC(C)C[C@H](NC(=O)[C@H](CCC(=O)O)NC(=O)[C@H](C)NC(=O)[C@H](CO)NC(=O)[C@H](CC(C)C)NC(=O)[C@H](CCCNC(=N)N)NC(=O)CNC(=O)[C@H](CC(C)C)NC(=O)[C@@H](NC(=O)[C@H](C)NC(=O)[C@@H](NC(=O)[C@H](CO)NC(=O)[C@H](CC(C)C)NC(=O)[C@H](CCC(=O)O)NC(=O)[C@H](CO)NC(=O)[C@H](C)NC(=O)[C@H](CCC(=O)O)NC(=O)CCCCCCCCCCCCCCCCC(=O)O)[C@@H](C)O)C(C)C)C(=O)N[C@@H](C)C(=O)N[C@@H](CCC(=O)O)C(=O)N[C@@H](CC(C)C)C(=O)N[C@@H](C)C(=O)N[C@H](C(=O)N[C@@H](CC(C)C)C(=O)N1CCC[C@H]1C(=O)N[C@@H](CCCNC(=N)N)C(=O)N[C@H](C(=O)N[C@@H](CCC(=O)O)C(=O)N[C@H](C(=O)NCC(=O)N1CCC[C@H]1C(=O)N[C@@H](CCC(=O)O)C(=O)N[C@@H](CO)C(=O)N1CCC[C@H]1C(N)=O)[C@@H](C)O)[C@@H](C)O)[C@@H](C)O

hAmylin-R funct. EC50 (pM) [1]: 31 pM
hCTR funct. EC50 (pM) [2]: 12 pM
B6: [N-terminal(C18 diacid), 9V, 28P]mimylin (peptide)
peptide: {C18 diacid}-EASELSTAVLGRLSAELHELATLPRTEPGPESP-NH2
SMILES: CC(C)C[C@H](NC(=O)[C@H](CCC(=O)O)NC(=O)[C@H](Cc1c[nH]cn1)NC(=O)[C@H](CC(C)C)NC(=O)[C@H](CCC(=O)O)NC(=O)[C@H](C)NC(=O)[C@H](CO)NC(=O)[C@H](CC(C)C)NC(=O)[C@H](CCCNC(=N)N)NC(=O)CNC(=O)[C@H](CC(C)C)NC(=O)[C@@H](NC(=O)[C@H](C)NC(=O)[C@@H](NC(=O)[C@H](CO)NC(=O)[C@H](CC(C)C)NC(=O)[C@H](CCC(=O)O)NC(=O)[C@H](CO)NC(=O)[C@H](C)NC(=O)[C@H](CCC(=O)O)NC(=O)CCCCCCCCCCCCCCCCC(=O)O)[C@@H](C)O)C(C)C)C(=O)N[C@@H](C)C(=O)N[C@H](C(=O)N[C@@H](CC(C)C)C(=O)N1CCC[C@H]1C(=O)N[C@@H](CCCNC(=N)N)C(=O)N[C@H](C(=O)N[C@@H](CCC(=O)O)C(=O)N1CCC[C@H]1C(=O)NCC(=O)N1CCC[C@H]1C(=O)N[C@@H](CCC(=O)O)C(=O)N[C@@H](CO)C(=O)N1CCC[C@H]1C(N)=O)[C@@H](C)O)[C@@H](C)O

hAmylin-R funct. EC50 (pM) [1]: 14 pM
hCTR funct. EC50 (pM) [2]: 6 pM
B7: [N-terminal(C18 diacid), 9V, 25P]mimylin (peptide)
peptide: {C18 diacid}-EASELSTAVLGRLSAELHELATLPPTETGPESP-NH2
SMILES: CC(C)C[C@H](NC(=O)[C@H](CCC(=O)O)NC(=O)[C@H](Cc1c[nH]cn1)NC(=O)[C@H](CC(C)C)NC(=O)[C@H](CCC(=O)O)NC(=O)[C@H](C)NC(=O)[C@H](CO)NC(=O)[C@H](CC(C)C)NC(=O)[C@H](CCCNC(=N)N)NC(=O)CNC(=O)[C@H](CC(C)C)NC(=O)[C@@H](NC(=O)[C@H](C)NC(=O)[C@@H](NC(=O)[C@H](CO)NC(=O)[C@H](CC(C)C)NC(=O)[C@H](CCC(=O)O)NC(=O)[C@H](CO)NC(=O)[C@H](C)NC(=O)[C@H](CCC(=O)O)NC(=O)CCCCCCCCCCCCCCCCC(=O)O)[C@@H](C)O)C(C)C)C(=O)N[C@@H](C)C(=O)N[C@H](C(=O)N[C@@H](CC(C)C)C(=O)N1CCC[C@H]1C(=O)N1CCC[C@H]1C(=O)N[C@H](C(=O)N[C@@H](CCC(=O)O)C(=O)N[C@H](C(=O)NCC(=O)N1CCC[C@H]1C(=O)N[C@@H](CCC(=O)O)C(=O)N[C@@H](CO)C(=O)N1CCC[C@H]1C(N)=O)[C@@H](C)O)[C@@H](C)O)[C@@H](C)O
